Assay results from the DeepSol protein solubility set.

Assay: soluble on expression in E. coli; label from the status in PepcDB or PDB records

**Q.** Which “soluble on expression in E. coli” value does the source give for “MGTMVFVNFPVADVQRSTAFYEKLGFKKNEEFSTEEASSMMWDDQFWIMLLNHDFYGKFIQEKQIIDAQTTSGALISFSLESAEAVKQFGETAKANGGNCYRVDMGIPEEQMYGLEVQDLDGNSLEPVWMKM” here?
**A.** not soluble

**Q.** With “MAASLWMGDLEPYMDENFISRAFATMGETVMSVKIIRNRLTGIPAGYCFVEFADLATAEKCLHKINGKPLPGATPAKRFKLNYATY” as the sequence, how does the “soluble on expression in E. coli” value read?
**A.** soluble

**Q.** Which “soluble on expression in E. coli” value does the source give for “MIEKKIHYVWFGNAKSEKVLKCIESWKKNLPDYEIIEWNEKNFNIEEELKSNKFFRECYNRKLWAFVSDYVRVKVLYNYGGIYLDTDMEIIKDITPLLDADMFLGYENEDTMSFGIVGVIPKHKVFKKMYEFYQNEIWKSPLHIVTSILTEILEKEYHGKYRENNINIYPREYFYPFNHDEEFTKDCITGNTYAIHWWGKSWKKNPKVYFLKYKHLPWWKKYPKHVAKLINYYFKNLFNFRKELEHHHHHH” here?
**A.** soluble

**Q.** With “DRKQQERELTETNSVLSSVLDNMPVGILIEDADRTITTANKKLLDILDVSLTPSGLIGCEYAEIAETLKTQFADPDQFNETVNKIHSTRDAVFDEELLMADGRILARSYVSYSLPDGTGNIWLYRDIT” as the sequence, how does the “soluble on expression in E. coli” value read?
**A.** not soluble

**Q.** With “MKTKLMTLQDATGFFRDGMTIMVGGFMGIGTPSRLVEALLESGVRDLTLIANDTAFVDTGIGPLIVNGRVRKVIASHIGTNPETGRRMISGEMDVVLVPQGTLIEQIRCGGAGLGGFLTPTGVGTVVEEGKQTLTLDGKTWLLERPLRADLALIRAHRCDTLGNLTYQLSARNFNPLIALAADITLVEPDELVETGELQPDHIVTPGAVIDHIIVSQESK” as the sequence, how does the “soluble on expression in E. coli” value read?
**A.** soluble

**Q.** For “MPFTPSEIKNKEFTRVKNGLEPTEVANYLEQLSNEIERLKEDKKQLEKVIEDRDSNIKSYKDVHQSVSDALIQAQKVGEETKQAATKEAEAVLSKAQVQADSIVNDAIEKARRLAFQTEDMKRQSKVFRSRFRMLVEAQLDLLKSEDWDYLLNYDLDAEQVTLEDIHHLHDNDLTPEERAMKQKQNQEISANQPSTSSSESVSQSNANNESSQSTSNN”, which “soluble on expression in E. coli” value is on record?
**A.** soluble

**Q.** Which “soluble on expression in E. coli” value does the source give for “METAPKPVGPYSQAVESGCFMFVSGQIPINPETGALEEGGFKESAKRALDNLKAIVEGAGYSMDDIVKVTVYITDISRFSEFNEVYREYFNRPYPARAVVGVAALPLGAPLEVEAVLYTCRRK” here?
**A.** soluble

**Q.** With “GMMVPHLTTALTGPLLTLEKRLLDNMPRIEHWFRSQWQEYGAPFYASVDLRNAGFKLAPVDTNLFPGGFNNLNPDFLPLCIQAAMVAVEKICPDARRLLLIPENHTRNTFYLRNVHALTHILRQAGLEVRIGSIAPEITAPTFLETHDGHSILLEPVRRKANRLELDNFDSCAILLNNDLSGGIPDILQGLEQSLIPPLHAGWATRRKSNHFTAYDRVVEEFAPLIDIDPWLLNPYFDTCGGLDFHARLGEEQLAEKVDSLLAKIRRKYAEYGVKQEPFVIVKADAGTYGMGIMTVKSADDVRDLNRKQRNKMSVVKEGLKVSEVILQEGVYTFEHLKDAVAEPVIYMMDHFVVGGFYRVHTSRGADENLNAPGMHFEPLTFETPCSTPDCAGAPDAAPNRFYAYGVVARLALLAATIELQETDPDLLDERT” as the sequence, how does the “soluble on expression in E. coli” value read?
**A.** soluble

**Q.** With “REQFGRDVMVVVDLSGSMAEKDFTSTNGLKISRLDAVKKVLNDFVKTRKGDRLGLILFGDAAFVQTPFTADHKVWLDLLNQTHVEMAGKSTHLGDAIGLTIKRFEDSNNSQPLSTTSREKVAIILTDGNDTDSYVPPMDAAKVAKVKGVRIHMIAIGDPQTVGEQALDMDTINTIADASGGQAFQALNQDELINAYAEISKLEPQLYQSTTYRT” as the sequence, how does the “soluble on expression in E. coli” value read?
**A.** not soluble

**Q.** For “MAHHHHHHMSLHKEICNYIVKFSSKPVQRLGYEPPKKKRSILRELYHKLIFPYYFKFIRAPYERWQFCATTKFLREHGLMYDDMYSDKDPVIERAISLLPKDIQTRRYRRMLRGTHINYLRLFLHPSEQNYDPYIPYLAPYIEEAKFQLQEEEELLGYHPYDRRLYSGGTTGFGDLEPGLHFLVSIPNLYGAAIPHSKKK”, which “soluble on expression in E. coli” value is on record?
**A.** soluble

**Q.** For “MGSDKIHHHHHHILLDYVESLVLSSVFPKRDFLSPTSNYLNGLKEVLYYQIFPERFANGDPSNDPNGSQSWDVDPAYANLGGDGFFGGDLKGIIDHFDHILELGVEAIYLNPIFESPSSHKYDTEDYLKIDDNFGNDYVFEEFISLAEDSGIKLILDGVFNHTGYDFFAFKDLREREETSPYKDWYFVKRFPIRKIQDRAMTYVGWNGYAYMPKVNSLNEGWQAYVERLVRKYNLEGIGGWRLDVATEVDPLFWSGFFRPLVKSLEKDMILVAEFWGDARSLLRGKTFDSAMNYPFKEAVIEYVFRAGNSAAKFAAMTNLYLNAYPPQTLHSLWNILDSHDTERILTLAFNQVDLLKIAVAIQMTFIGSPVIYYGDEVGMKGGKDPENRAPMLWDEEKWNWEIYDFYKTLIDLRRTHESIKDGEYEVLTAEGPVFSFRRWKDSEEVIVVINPSRENAFFNPEFEGEFCEYLSGRSISFFENKAEITPLTVWILVQED”, which “soluble on expression in E. coli” value is on record?
**A.** not soluble

**Q.** For “GMATLGANASLYSEQHRITYYECDRTGRATLTTLIDIAVLASEDQSDALGLTTEMVQSHGVGWVVTQYAIDITRMPRQDEVVTIAVRGSAYNPYFAYREFWIRDADGQQLAYITSIWVMMSQTTRRIVKILPELVAPYQSEVVKRIPRLPRPISFEATDTTITKPYHVRFFDIDPNRHVNNAHYFDWLVDTLPATFLLQHDLVHVDVRYENEVKYGQTVTAHANILPSEVADQVTTSHLIEVDDEKCCEVTIQWRTLPEPIQ”, which “soluble on expression in E. coli” value is on record?
**A.** soluble

**Q.** Which “soluble on expression in E. coli” value does the source give for “MGHHHHHHSHMIGSGLSDLFDLTSGVGTLSGSYVAPKAVWLPAMKAKGLEISGTFTRQVGSISMDLQLTNKALQVMTDFAIQFNRNSFGLAPAAPLQVHAPLSPNQTVEISLPLSTVGSVMKMEPLNNLQVAVKNNIDVFYFSTLYPLHILFVEDGKMDRQMFLATWKDIPNENEAQFQIRDCPLNAEAASSKLQSSNIFTVAKRNVEGQDMLYQSLKLTNGIWVLAELRIQPGNPSCTDLELSLKCRAPEVSQHVYQAYETILKN” here?
**A.** soluble

**Q.** With “MGSDKIHHHHHHMISDHDGEFGSQNVRAALPSLMALRCFEAAARHEHFSRAADELHLTHGAVSRAVRLLEDDLGVALFERRSRRVFLTDAGRKLAQAVHDGLHLMRQAAHELRTDAARAQRWVLSCEPTLLMRWLIPRWPDFQATYPRVDIHLAAAGGPFSFDHGIDIAIRRNDFAWPAGYHAERLFTERVGPVCRPDRVDTWFSGGRDDRALKRGAPRLHTRTRPDAWKEWAAAAHQPAGSGRGQMFDHFYFSLQAAVAGLGVAIGPWHLVRDDLESEVLVAPMGFVQDGSHYCLLTPEPVKDGSAQSALLDWLRTMA” as the sequence, how does the “soluble on expression in E. coli” value read?
**A.** not soluble

**Q.** With “MDPRGILKAFPKRQKIHADASSKVLAKIPRREEGEEAEEWLSSLRAHVVRTGIGRARAELFEKQIVQHGGQLCPAQGPGVTHIVVDEGMDYERALRLLRLPQLPPGAQLVKSAWLSLCLQERRLVDVAGFSIFIPSRYLDHPQPSKAEQDASIPPGTHEALLQTALSPPPPPTRPVSPPQKAKEAPNTQAQPISDDEASDGEETQVSAADLEALISGHYPTSLEGDCEPSPAPAVLDKWVCAQPSSQKATNHNLHITEKLEVLAKAYSVQGDKWRALGYAKAINALKSFHKPVTSYQEACSIPGIGKRMAEKIIEILESGHLRKLDHISESVPVLELFSNIWGAGTKTAQMWYQQGFRSLEDIRSQASLTTQQAIGLKHYSDFLERMPREEATEIEQTVQKAAQAFNSGLLCVACGSYRRGKATCGDVDVLITHPDGRSHRGIFSRLLDSLRQEGFLTDDLVSQEENGQQQKYLGVCRLPGPGRRHRRLDIIVVPYSEFACALLYFTGSAHFNRSMRALAKTKGMSLSEHALSTAVVRNTHGCKVGPGRVLPTPTEKDVFRLLGLPYREPAERDW” as the sequence, how does the “soluble on expression in E. coli” value read?
**A.** soluble

**Q.** Which “soluble on expression in E. coli” value does the source give for “MSVWASRLKAMGLLENLLNRYTPRTSGTPVFAVIDTGTTGFNKRYDHIIELAAVRADAYFKPVDSWHALLNPDTNAVSTTRGTPPPTSALNPAVGVTRSEAS” here?
**A.** not soluble

**Q.** Which “soluble on expression in E. coli” value does the source give for “MKKFFMASLLGSAIALCTTAMAASTDLKALEDAARKEGTVNSVGMPDAWANWKGTWEDLASKYGLKHSDTDMSSAQELAKFEAEKDNASADIGDVGAAFGPIAVTKGVSQPYKPSTWDQVPEWAKDKDGHWALAYTGTIAFIINKDLVKEEERPKTWHDLEKGKYKVAIGDVGTAAQAANGVLAAAIAYKGDESNVAPGLQLFTKLAQQKRLSLANPTIQTLEKGEVEVGVVWDFNGLSYREQIDPKRFEVLIPSDGSVISGYTTVINKYAKHPNAAKLTREYIFSDAGQINLAKGHARPIRAEHLKLPADVQAKLLPNDQYAAAQPIKNAEAWEATSKKLPQMWQEQVIIEME” here?
**A.** not soluble

**Q.** With “MEEKKPVNLVLPEVENAIFIEGYPGVGLVGHIAANFLAKELDMDLIGYVDSLFIPPMSLILEGRPTPPLRFYGKNNIIIAIADIFLPPTLVNEIAKEIVNYLKKVNAEKVISLAGMGIGFFKDTFEVWGIGGSEEENKELESLGVKILKYGSITGMSGKLLWEASRAGLKSYVLLGETFGDRPDPRAAANVVEVLNKMLGLNVSVEPLLKEAEMIEEQLRRMHEQMEEARRKMERQYETMYL” as the sequence, how does the “soluble on expression in E. coli” value read?
**A.** not soluble

**Q.** Which “soluble on expression in E. coli” value does the source give for “MGSDKIHHHHHHMETSEILKKVRQIEIKTRGLSNNIFAGQYHSAFKGRGMSFSEVREYQFGDDIRDIDWNVTARFNKPYVKVFEEERELTVMLMVDVSGSLEFGTVKQLKKDMVTEIAATLAFSAIQNNDKIGVIFFSDRIEKFIPPKKGRKHILYIIRELIDFQPESRRTNIRLALEYLTNVMKRRCTAFILSDFIDQDNFKNALTIANRKHDVVALQVYDRRVSDLPPVGLMRIKDAETGHEQWIDTSSKAVRRAHRDWWINKQTELNDTFTKSNVDSVSVRTDQDYVKALLNLFAKRN” here?
**A.** not soluble

**Q.** Which “soluble on expression in E. coli” value does the source give for “GSSGSSGYQPTYNPTLPYKRPIPGGLSVGMSVYIQGMAKENMRRFHVNFAVGQDDGADVAFHFNPRFDGWDKVVFNTMQSGQWGKEEKKKSMPFQKGKHFELVFMVMPEHYKVVVNGNSFYEYGHRLPVQMVTHLQVDGDLELQSINFLGGQPAAAPY” here?
**A.** soluble

**Q.** With “MLCSMGTLFQRLSSLDGKGYGAYKSIAGRHALEGVPGAELFLDKVQSDPYAPASLSRVRVPLAALPFSGSLSTHQRDLLNRRIAGEFCHGLAIDCPGQQVLSRAAVTQLDDALQICFEVQLPARGRRIRGREAAQLLCTTLSRALDRALCITAGGDALRAELEAAAELERDQAALR” as the sequence, how does the “soluble on expression in E. coli” value read?
**A.** not soluble

**Q.** With “PQLDEARTNGLMKTLFPHQVLSTIQASRILKTYNGVVIADSTGLGKTRVAINLAVMAINDGRNPLLIAPKSALETTWKDEMDKTHVHIDSKRSEYLSQHPDEAIKEIQGKDFIIVDEAHYFKSPGSNRYSVLRDLMAAGQKQIVLLTATP” as the sequence, how does the “soluble on expression in E. coli” value read?
**A.** not soluble

**Q.** Which “soluble on expression in E. coli” value does the source give for “MYQLEKEPIVGAETFYVDGAANRETKLGKAGYVTNRGRQKVVTLTDTTNQKTELQAIYLALQDSGLEVNIVTDSQYALGIITQWIHNWKKRGWKTADKKPVKNVDLVNQIIEQLIKKEKVYLAWVPAHKGIGGNEQVDKLVSAGIRKVLF” here?
**A.** soluble

**Q.** With “MSLNTSLLILLVASFSSLVLSQNDSKKGGLPKKVHFSFGPAYLRNLTKEEKQQYYAIFGNKDLTIKQQEDQRLAFAEKHGFGQAIKDDIKLKAGNHELIRKERPEIIKNLLAAHEATMKIFDNKDQTLSQREAAVNALKKKYPHAPSTLYYISRLITGNGKHQTPFIKHH” as the sequence, how does the “soluble on expression in E. coli” value read?
**A.** not soluble
